In patent US20240228562A1, “NOVEL LIPOCALIN MUTEINS SPECIFIC FOR CONNECTIVE TISSUE GROWTH FACTOR (CTGF)” (PIERIS PHARMACEUTICALS GMBH, priority 2021, published 2024):

Experiment: Thermal stability assessment by nanoDSC
Type: physicochemical
Conditions: 1 mg/mL in PBS, scan 25-100° C. at 1° C./min; for TM: major transition
Procedure: To determine the melting temperatures (Tms) of the lipocalin muteins, which is a general indicator for folding stability, the CTGF specific muteins, at a protein concentration of 1 mg/mL in PBS (Gibco), were scanned (25-100° C.) at 1° C./min using a capillary nanoDSC instrument (CSC 6300, TA Instruments). […] Several unfolding events can contribute to the observed thermogram. In cases with multiple transitions, the one with the major unfolding energy best represents the overall protein fold and is reported. Muteins were produced as described in Example 3. SEQ ID NOs: 3, 7, 9, 25, and 29 were expressed using E. coli, the other muteins were expressed using CHO cells.
The resulting maximum melting temperatures as well as the onset temperature of melting for exemplary lipocalin muteins and fusion proteins are listed in Table 3 below.

Molecule | ONSET MELTING [°C] | TM [°C]
SEQ ID NO: 62: fusion protein comprising two CTGF-binding lipocalin muteins (protein, fusion protein) QDSTSDLIPAPPLSKVPLQQNFQDNQFQGKWYVVGRAGNNQLREDKSPPKMWATIYELKEDKSYDVTHVHFSTKKCRYIIDTFVPGSQPGEFTAGAIKSGPGLTSPLVRVVSTNYNQHAMVFFKWVTQNREWFTITLYGRTKELTSELKENFIRFSKSLGLPENHIVFPVPIDQCIDGGGGGSGGGGSGGGGSQDSTSDLIPAPPLSKVPLQQNFQDNQFQGKWYVVGWAGNVKLREDKQPQKMSATIYELKEDKSYDVTEVVFEQKKCHYIIKTFVPGSQPGEFTAGDIKSPPGYTSSLVRVVSTNYNQHAMVFFKKVSQNREFFWITLYGRTKELTSELKENFIRFSKSLGLPENHIVFPVPIDQCIDG | 53 | 67
SEQ ID NO: 64: fusion protein comprising two CTGF-binding lipocalin muteins (protein, fusion protein) QDSTSDLIPAPPLSKVPLQQNFQDNQFQGKWYVVGLAGNYRLREDKDPSKMGATIYELKEDKSYDVTQVQFDDKKCLYVIETFVPGSQPGEFTLGAIKSYPGLTSQLVRVVSTNYNQHAMVFVKKVWPNLEYFQIVLYGRTKELTSELKENFIRFSKSLGLPENHIVFPVPIDQCIDGGGGGSGGGGSGGGGSQDSTSDLIPAPPLSKVPLQQNFQDNQFQGKWYVVGLAGNAILREDKQPAKMFATIYELKEDKSYDVTSVRFEAKSCKYTIKTFVPGSQPGEFTAGYIKSAPGQTSTLVRVVSTNYNQHAMVFFKHVTQNREIFVITLYGRTKELTSELKENFIRFSKSLGLPENHIVFPVPIDQCIDG | 56 | 65
SEQ ID NO: 63: fusion protein comprising two CTGF-binding lipocalin muteins (protein, fusion protein) QDSTSDLIPAPPLSKVPLQQNFQDNQFQGKWYVVGRAGNNQLREDKSPPKMWATIYELKEDKSYDVTHVHFSTKKCRYIIDTFVPGSQPGEFTAGAIKSGPGLTSPLVRVVSTNYNQHAMVFFKWVTQNREWFTITLYGRTKELTSELKENFIRFSKSLGLPENHIVFPVPIDQCIDGGGGGSGGGGSGGGGSQDSTSDLIPAPPLSKVPLQQNFQDNQFQGKWYVVGLAGNAILREDKQPAKMFATIYELKEDKSYDVTSVRFEAKSCKYTIKTFVPGSQPGEFTAGYIKSAPGQTSTLVRVVSTNYNQHAMVFFKHVTQNREIFVITLYGRTKELTSELKENFIRFSKSLGLPENHIVFPVPIDQCIDG | 50 | 66
SEQ ID NO: 69: fusion protein comprising two CTGF-binding lipocalin muteins (protein, fusion protein) QDSTSDLIPAPPLSKVPLQQNFQDNQFQGKWYVVGLAGNAILREDKQPAKMFATIYELKEDKSYDVTSVRFEAKSCSYTSKTFVPGSQPGEFTAGNIKSAPGQTSTLVRVVSTNYNQHAMVFFKHVSQNRETFVITLYGRTKELTSELKENFIRFSKSLGLPENHIVFPVPIDQCIDGGGGGSGGGGSGGGGSQDSTSDLIPAPPLSKVPLQQNFQDNQFQGKWYVVGLAGNYRLREDKDPSKMGATIYELKEDKSYDVTQVQFDDKKCLYVIETFVPGSQPGEFTLGAIKSYPGLTSQLVRVVSTNYNQHAMVFVKKVWPNLEYFQIVLYGRTKELTSELKENFIRFSKSLGLPENHIVFPVPIDQCIDG | 57 | 64
SEQ ID NO: 72: fusion protein comprising two CTGF-binding lipocalin muteins (protein, fusion protein) QDSTSDLIPAPPLSKVPLQQNFQDNQFQGKWYVVGLAGNAILREDKYPAKMFATIYELKEDKSYDVTSVRFENKSCVYTIKTFVPGSQPGEFTTGNIKSAPGQTSTLVRVVSTNYNQHAMVFFKHVSQNREFFVITLYGRTKELTSELKENFIRFSKSLGLPENHIVFPVPIDQCIDGGGGGSGGGGSGGGGSQDSTSDLIPAPPLSKVPLQQNFQDNQFQGKWYVVGLAGNYRLREDKDPSKMGATIYELKEDKSYDVTQVQFDDKKCLYVIETFVPGSQPGEFTLGAIKSYPGLTSQLVRVVSTNYNQHAMVFVKKVWPNLEYFQIVLYGRTKELTSELKENFIRFSKSLGLPENHIVFPVPIDQCIDG | 62 | 66
SEQ ID NO: 75: fusion protein comprising two CTGF-binding lipocalin muteins (protein, fusion protein) QDSTSDLIPAPPLSKVPLQQNFQDNQFQGKWYVVGLAGNAILREDKQPAKMFATIYELKEDKSYDVTSVRFEAKSCKYTIKTFVPGSQPGEFTAGYIKSAPGQTSTLVRVVSTNYNQHAMVFFKHVTQNREIFVITLYGRTKELTSELKENFIRFSKSLGLPENHIVFPVPIDQCIDGGGGGSGGGGSGGGGSQDSTSDLIPAPPLSKVPLQQNFQDNQFQGKWYVVGLAGNYRLREDKDPSKMGATIYELKEDKSYDVTQVQFDDKKCLYVIETFVPGSQPGEFTLGAIKSYPGLTSQLVRVVSTNYNQHAMVFVKKVWPNLEYFQIVLYGRTKELTSELKENFIRFSKSLGLPENHIVFPVPIDQCIDG | 58 | 65
SEQ ID NO: 68: fusion protein comprising two CTGF-binding lipocalin muteins (protein, fusion protein) QDSTSDLIPAPPLSKVPLQQNFQDNQFQGKWYVVGLAGNAILREDKQPAKMFATIYELKEDKSYDVTSVRFEAKSCSYTSKTFVPGSQPGEFTAGNIKSAPGQTSTLVRVVSTNYNQHAMVFFKHVSQNRETFVITLYGRTKELTSELKENFIRFSKSLGLPENHIVFPVPIDQCIDGGGGGSGGGGSGGGGSQDSTSDLIPAPPLSKVPLQQNFQDNQFQGKWYVVGWAGNVKLREDKQPQKMSATIYELKEDKSYDVTEVVFEQKKCHYIIKTFVPGSQPGEFTAGDIKSPPGYTSSLVRVVSTNYNQHAMVFFKKVSQNREFFWITLYGRTKELTSELKENFIRFSKSLGLPENHIVFPVPIDQCIDG | 61 | 72
SEQ ID NO: 73: fusion protein comprising two CTGF-binding lipocalin muteins (protein, fusion protein) QDSTSDLIPAPPLSKVPLQQNFQDNQFQGKWYVVGLAGNAILREDKYPAKMFATIYELKEDKSYDVTSVRFENKSCVYTSKTFVPGSQPGEFTTGNIKSAPGQTSTLVRVVSTNYNQHAMVFFKHVSQNREFFVITLYGRTKELTSELKENFIRFSKSLGLPENHIVFPVPIDQCIDGGGGGSGGGGSGGGGSQDSTSDLIPAPPLSKVPLQQNFQDNQFQGKWYVVGWAGNVKLREDKQPQKMSATIYELKEDKSYDVTEVVFEQKKCHYIIKTFVPGSQPGEFTAGDIKSPPGYTSSLVRVVSTNYNQHAMVFFKKVSQNREFFWITLYGRTKELTSELKENFIRFSKSLGLPENHIVFPVPIDQCIDG | 71 | 75
SEQ ID NO: 71: fusion protein comprising two CTGF-binding lipocalin muteins (protein, fusion protein) QDSTSDLIPAPPLSKVPLQQNFQDNQFQGKWYVVGLAGNAILREDKYPAKMFATIYELKEDKSYDVTSVRFENKSCVYTIKTFVPGSQPGEFTTGNIKSAPGQTSTLVRVVSTNYNQHAMVFFKHVSQNREFFVITLYGRTKELTSELKENFIRFSKSLGLPENHIVFPVPIDQCIDGGGGGSGGGGSGGGGSQDSTSDLIPAPPLSKVPLQQNFQDNQFQGKWYVVGWAGNVKLREDKQPQKMSATIYELKEDKSYDVTEVVFEQKKCHYIIKTFVPGSQPGEFTAGDIKSPPGYTSSLVRVVSTNYNQHAMVFFKKVSQNREFFWITLYGRTKELTSELKENFIRFSKSLGLPENHIVFPVPIDQCIDG | 67 | 76
SEQ ID NO: 70: fusion protein comprising two CTGF-binding lipocalin muteins (protein, fusion protein) QDSTSDLIPAPPLSKVPLQQNFQDNQFQGKWYVVGWAGNVKLREDKQPQKMSATIYELKEDKSYDVTEVVFEQKKCHYIIKTFVPGSQPGEFTAGDIKSPPGYTSSLVRVVSTNYNQHAMVFFKKVSQNREFFWITLYGRTKELTSELKENFIRFSKSLGLPENHIVFPVPIDQCIDGGGGGSGGGGSGGGGSQDSTSDLIPAPPLSKVPLQQNFQDNQFQGKWYVVGLAGNAILREDKQPAKMFATIYELKEDKSYDVTSVRFEAKSCKYTIKTFVPGSQPGEFTAGYIKSAPGQTSTLVRVVSTNYNQHAMVFFKHVTQNREIFVITLYGRTKELTSELKENFIRFSKSLGLPENHIVFPVPIDQCIDG | 55 | 73
